Laboratory results: the supplement of paper PMC9170038

How the values were obtained:
MS2 coat protein [1] = assay: apparent KD of MS2 coat protein, switch ON state; designed switch direction (-1 OFF switch, 1 ON switch): 1; higher = weaker reporter binding; conditions: FMN input: 0 or 200 uM; Eterna round: R93 (includes R88 designs)
Procedure, shortened: (§1)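 For every design, apparent KD is the median of normalised binding-curve fits from its clusters. The RNA switches were transcribed on-chip from Illumina sequencing clusters and titrated with SNAP-549-labelled MS2 coat protein (twofold steps, 0.7 or 1.5 nM to 3 µM; 0.8–1.5 h to 10–20 min per step). Titrations used 100 mM Tris-HCl pH 7.5, 80 mM KCl, 4 mM MgCl2, without or with constant ligand.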

MS2 coat protein [2] = assay: apparent KD of MS2 coat protein, switch OFF state (with FMN for OFF switches, without FMN for ON switches); designed switch direction (-1 OFF switch, 1 ON switch): 1; higher = weaker reporter binding; conditions: FMN input: 0 or 200 uM; Eterna round: R93 (includes R88 designs)
Procedure, shortened: as §1

Row | Sequence | apparent KD of MS2 coat protein (MS2 coat protein [1]) [nM] | apparent KD of MS2 coat protein (MS2 coat protein [2]) [nM]
1 | UUACAGCACAGGUAGGAUAUGUAGGGUGGUACAUGAGGAUCACCCAUGUAUCCACCCUUCGAAAGGCAGAAGGGCCUGUCGCCGC [Leanisqube] | 13.1 | 15
2 | AGAAAUAAAAGAGAGGAUAUUCAAAAAGGGACAUGAGGAUCACCCAUGUAAAAGAAAAUAAAAUGGGAGAAGGCUCUAAAUAAAG [80%, More Helter Skelter 2] | 86.6 | 127
3 | GAAAAACAUGAGGAUCACCCAUGUGAGAAUAUGGGAGGAUAUACGAAGACGAGAGUCAAAGUAGAAGGCCUAAAAG [Mat - Same State 1 - Eli mod - 30] | 27.2 | 82.9
4 | CGGAAGGAGAGAGAGGAUAUCCAAAGGAAAACAUGAGGAUCACCCAUGUAGAAGGUAGGAAAUUGGGAGAAGGCUCAAGAGACAG [salish99-ss2-125] | 25.3 | 55.9
5 | AGGAAACAUGAGGAUCACCCAUGUAAGAUAAACACAGGAUAUGCGAAAAGAAACAAAGAAGCAGAAGGGUGGAGAA [75%, Ex5 sub 1, 3] | 19.4 | 25.1
6 | AUAUAUAUAAGGAAGGAUAUCUUAGAAAAAACAUGAGGAUCACCCAUGUAAAUAAAGAAUAAAUGGGAGAAGGUCCAUAUAUAUA [77%, More Tesla, 10] | 15.1 | 109
7 | AAAAAACAUGAGGAUCACCCAUGUAGAAAUAUGGGAGGAUAUGGAAACACGAAAGUGAAACCAGAAGGCUCAAAAG [77%, Mat - Mod of Eli, 8] | 26.6 | 69.5
8 | AAAGAAAAACUAGAGGAUAUCCGAAUGGUAACAUGAGGAUCACCCAUGUGAAGAAAGGAACAUGAGGAGAAGGCUAGAAGAAAAA [JL Nando mod 10] | 18.8 | 23.4
9 | AAAUAAAUGACUAAGGAUAUAUCAUAAGAAACAUGAGGAUCACCCAUGUAAUAAUAAAAAGGGUGAUAGAAGGUAGUCAACAAAC [74%, More Paria 4] | 19.8 | 114
10 | GAAAAACAUGAGGAUCACCCAUGUAGAAAUAUGGGAGGAUAUACAAAGACGAAAGUCAAAGUAGAAGGCCUAAAGA [Mat - Same State 1 - Eli mod - 34] | 15.5 | 91.1
11 | AAAGACGUGCAUCAGGAUAUGUUCCGAGACACAUGAGGAUCACCCAUGUGGACGAAGUCUCGGGCACAGAAGGGAUCACUCAUAA [Latibe] | 15.4 | 21.4
12 | AAAAGACAUGAGGAUCACCCAUGUCCUCGGACAUGAGGAUAUGUACAGACUUCGGUCUGUACAGAAGGCAUAAAAA [SS1 - 1063] | 71.2 | 349
13 | AGAAAUAAAACACAGGAUAUCCAAAAUAAAACAUGAGGAUCACCCAUGUAAAGAAAAGAAAAAUGGGAGAAGGGUGAAAAUAAGA [Mat - Same State 2 - JL mod - D19] | 19.4 | 69.7
14 | AAAUAAAUGACUGAGGAUAUAUCGAUGAGUACAUGAGGAUCACCCAUGUGUUAAUAAAAAGGGUGGUAGAAGGUAGUCAACAAAC [Mod 15 of Pariah 4 by Hyphema in Round 1] | 112 | 51.2
15 | AACAGACAUGAGGAUCACCCAUGUAGAAUUAUGGGAGGAUAUACAAAGACGAGAGUCAGAGUAGAAGGCCUAGGAA [salish99-ss1-165] | 22 | 89.7
16 | AAAAUACAUGAGGAUCACCCAUGUGAAAAUAUGGGAGGAUAUACCGAAAAAAAAAAAAAGGUAGAAGGCCCAAAAA [SS! 1 MT 5] | 17.1 | 69.2

Row | Sequence | apparent KD of MS2 coat protein (MS2 coat protein [1]) [nM] | apparent KD of MS2 coat protein (MS2 coat protein [2]) [nM]
17 | AAAAAACAUGAGGAUCACCCAUGUCUUCGGACGUGAGGAUAUGUACAGACUUCGGUCUGUACAGAAGGCAUGUAAA [SS1 - 1052] | 286 | 186
18 | GUGUAAAGAAUCGAGGAUAUCCAAAAAAGCACAUGAGGAUCACCCAUGUAAGAGAGAGAAUAAUGGGAGAAGGCGAGUUAUCGGU [JR_SS002_Sub1712] | 18.1 | 64.1
19 | GAGGACCUAGGAUAGGAUAUGUGAAUAAUUACAUGAGGAUCACCCAUGUCCAUUUAUAUGGGAACAUAGAAGGGUUCUGGUUAUC [SameState2 Malc#38] | 51.8 | 71.9
20 | AAUAUACAUGAGGAUCACCCAUGUUUUAAUAACUCAGGAUAUACGGGUGAAAACAGCAUAGUAGAAGGGAGAAAAA [SameState1 Malc#2] | 44 | 113
21 | CGAAAGGAGAGAGAGGAUAUCCAAAGGAAAACAUGAGGAUCACCCAUGUAGAAGGUAGGAGAUUGGGAGAAGGCUCAAGAGAGAU [salish99-ss2-147] | 32.1 | 34.3
22 | AAAAAAAAAAGACAGGAUAUACAAUAUAUUACAUGAGGAUCACCCAUGUUUUUUUUUUAAUUAAAGUAGAAGGGUCAAAAAAAAAA [SS 2.1] | 25.6 | 30.3
23 | AAAUAAAUAAAAAAGGAUAUAAAAAAGUACACAUGAGGAUCACCCAUGUGUACACAUGGGUGAUCCUAGAAGGAAAAAUAAAAAA [SS2: 91 No MS2] | 117 | 73.3
24 | UGUCCACAUGAGGAUCACCCAUGUCAGGAGGUGACAGGAUAUUGCGAAAAAAAAAAAAAGCAAGAAGGGUCUGAUU [SameState1-cac1] | 36.4 | 98.4
25 | AUACGUACGUAUGAGGAUAUCCAUAAUAAGACAUGAGGAUCACCCAUGUAAACAAAACAAUAAUGGGAGAAGGCAUACGUACGAU [SS 2 M 50] | 47.7 | 54.8
26 | AAACCACAUGAGGAUCACCCAUGUCCAAAAAAACAAGGAUAUAUAAAAAAAAAAAAAAAAAUAGAAGGUGUAAAAA [<insert title here>] | 75.5 | 113
27 | AAAGAAAAACUAGAGGAUAUCUGAGUGGUAACAUGAGGAUCACCCAUGUGAAGAAAGGAGCAUGAGGAGAAGGCUAGAAGAAAAA [JL Nando mod 22] | 11.7 | 59
28 | AAUAAUUAUAUGGAGGAUAUCCGUAAUAAGACAUGAGGAUCACCCAUGUAAUAAGGUUAAAUAAAGGAGAAGGCCAAGGGUGAAA [JR_SS002_Sub004] | 129 | 344
29 | AAAAAACAUGAGGAUCACCCAUGUAAAAAAACAUGAGGAUAUAUAAAAAAAAAAAAAAAGAUAGAAGGCAUAAAUA [JR_SS001_Sub1201] | 128 | 77.4
30 | GAAAAACAUGAGGAUCACCCAUGUGGAAAUAUGGGAGGAUAUACAAAGACGGAAGUCAAAGUAGAAGGCCUAAAAG [Mat - Same State 1 - Eli mod - D10] | 26.5 | 119
31 | UCGUCCUCGUGCUAGGAUAUCCAUCGUAAAACAUGAGGAUCACCCAUGUAGAAAUGCGCCUACGAGGAGAAGGAGCGAUGUGGAU [Velemageer] | 14.9 | 19
32 | AAAAAAAAAAGUGAGGAUAUGGGAAAAUUAACAUGAGGAUCACCCAUGUGAUAAAAAAAAAAAAACCAGAAGGUACAAAAAAAAA [Original 73%, More Wateronthemoon, 1] | 16 | 42.3
